Experimental data from paper PMC4477859.

Target: wild-type CENP-A nucleosome arrays with Myc-H4 (UniProt P49450)
Test: pull-down

Sequence of UniProt P49450 (P49450 whole entry, looked up): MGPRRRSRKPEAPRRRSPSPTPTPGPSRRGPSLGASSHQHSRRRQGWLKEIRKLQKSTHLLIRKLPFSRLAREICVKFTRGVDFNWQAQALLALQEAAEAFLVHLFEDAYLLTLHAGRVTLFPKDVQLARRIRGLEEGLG

**Q.** How did the CENP-C to CENP-A nucleosome ratio, low against high saturation arrays turn out when CENP-C (natural protein) was run?
**A.** 2 fold
